Among the data in publication PMC4477937 are Kd, percent of the cell surface binding of the frozen α2M preparations inhibited by RAP and percent of the cell surface binding of α2M inhibited by RAP (α2M in PBS/Az values, retold here.

Read-outs that look alike come from different tables or passages of the source.

The target in assay [1] is TGF-β1 (Homo sapiens) (UniProt P01137). As to conditions: cited from earlier work.
Assay [2] concerns the target TGF-β2 (Homo sapiens) (UniProt P61812). The conditions noted are these: cited from earlier work.
Assay [3] deals with TNF-α (Homo sapiens) (UniProt P01375). As to conditions: cited from earlier work.
Sequence of TNF-α (Homo sapiens) (P01375 77-233): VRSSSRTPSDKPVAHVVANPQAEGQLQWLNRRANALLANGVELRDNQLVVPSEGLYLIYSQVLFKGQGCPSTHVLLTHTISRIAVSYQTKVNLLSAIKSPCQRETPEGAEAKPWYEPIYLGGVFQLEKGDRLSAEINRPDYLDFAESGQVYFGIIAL
Assay [4] addresses lipoprotein receptors (on SH-SY5Y cells) (human (endogenous in SH-SY5Y)). The assay can be described thus: flow cytometry on cells; SH-SY5Y cells detached with EDTA, in Hank's binding buffer, steps of 30 min at 4°C: RAP (8 μM) or buffer alone, then α2M (100 nM), rabbit anti-α2M, anti-rabbit IgG-FITC; viable cells gated by propidium iodide; α2M preparations stored at 4°C or -20°C for 10 days. (In general: Flow cytometry measures light scatter and fluorescence of single cells or particles in a stream.)

Assay [5] concerns the target TGF-β2 (Homo sapiens) (UniProt P61812). The conditions noted are these: cited from earlier work. This is another data set of the same source.
Assay [6] concerns the target TGF-β1 (Homo sapiens) (UniProt P01137). The conditions noted are these: cited from earlier work. The source holds these as a separate data set.
Assay [7] has as its target TNF-α (Homo sapiens) (UniProt P01375). The conditions noted are these: cited from earlier work. This is another data set of the same source.

Sequence of alpha-2-macroglobulin (transformed, α2M*) (P01023 24-1474): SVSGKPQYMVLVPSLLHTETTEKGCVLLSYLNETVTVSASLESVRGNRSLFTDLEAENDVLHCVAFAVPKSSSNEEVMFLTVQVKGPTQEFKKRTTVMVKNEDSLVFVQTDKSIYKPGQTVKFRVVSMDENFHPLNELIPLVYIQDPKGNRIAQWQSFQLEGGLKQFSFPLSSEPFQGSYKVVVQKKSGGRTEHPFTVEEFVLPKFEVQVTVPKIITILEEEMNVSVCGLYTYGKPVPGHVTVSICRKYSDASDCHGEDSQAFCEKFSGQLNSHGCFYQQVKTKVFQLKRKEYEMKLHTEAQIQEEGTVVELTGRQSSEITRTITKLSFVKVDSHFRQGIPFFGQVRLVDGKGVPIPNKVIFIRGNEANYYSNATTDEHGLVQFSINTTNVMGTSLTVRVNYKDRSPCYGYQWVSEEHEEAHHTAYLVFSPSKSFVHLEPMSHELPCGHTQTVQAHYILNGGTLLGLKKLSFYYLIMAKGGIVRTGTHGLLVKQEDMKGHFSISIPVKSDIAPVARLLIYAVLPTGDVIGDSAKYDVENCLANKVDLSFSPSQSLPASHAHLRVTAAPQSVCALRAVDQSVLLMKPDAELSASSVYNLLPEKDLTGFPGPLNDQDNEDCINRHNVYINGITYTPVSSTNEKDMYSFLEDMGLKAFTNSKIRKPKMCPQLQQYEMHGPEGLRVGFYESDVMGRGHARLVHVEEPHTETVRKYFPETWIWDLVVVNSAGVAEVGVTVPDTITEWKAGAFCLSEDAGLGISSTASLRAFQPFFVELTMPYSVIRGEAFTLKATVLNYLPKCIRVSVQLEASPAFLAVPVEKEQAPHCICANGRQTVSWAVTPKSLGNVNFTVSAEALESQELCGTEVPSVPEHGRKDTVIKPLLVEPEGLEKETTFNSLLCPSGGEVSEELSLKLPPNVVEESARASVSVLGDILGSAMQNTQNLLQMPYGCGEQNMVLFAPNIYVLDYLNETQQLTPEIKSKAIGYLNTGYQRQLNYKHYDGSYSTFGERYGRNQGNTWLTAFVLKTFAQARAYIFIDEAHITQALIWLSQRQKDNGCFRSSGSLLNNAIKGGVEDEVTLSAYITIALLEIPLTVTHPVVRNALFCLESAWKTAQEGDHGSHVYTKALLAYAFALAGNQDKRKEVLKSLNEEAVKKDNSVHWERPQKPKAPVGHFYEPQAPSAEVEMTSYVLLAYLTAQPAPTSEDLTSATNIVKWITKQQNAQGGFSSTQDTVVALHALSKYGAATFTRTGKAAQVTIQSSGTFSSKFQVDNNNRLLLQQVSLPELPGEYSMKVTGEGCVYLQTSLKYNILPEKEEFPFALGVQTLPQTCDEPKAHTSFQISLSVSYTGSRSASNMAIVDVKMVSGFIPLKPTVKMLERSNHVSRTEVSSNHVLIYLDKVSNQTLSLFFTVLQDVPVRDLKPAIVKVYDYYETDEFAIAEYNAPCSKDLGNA
Sequence of alpha-2-macroglobulin (native) (P01023 24-1474): as above
Sequence of glutathione-S-transferase-RAP (receptor-associated protein) (P30533 35-357): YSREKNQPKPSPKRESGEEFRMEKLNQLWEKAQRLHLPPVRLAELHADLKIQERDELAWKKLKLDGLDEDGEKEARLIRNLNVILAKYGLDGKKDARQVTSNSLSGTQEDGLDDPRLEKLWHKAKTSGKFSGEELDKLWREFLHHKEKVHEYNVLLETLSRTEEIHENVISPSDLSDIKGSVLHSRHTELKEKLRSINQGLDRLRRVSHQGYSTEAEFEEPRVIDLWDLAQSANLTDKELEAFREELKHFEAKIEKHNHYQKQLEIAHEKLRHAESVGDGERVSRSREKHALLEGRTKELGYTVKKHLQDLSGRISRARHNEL
Sequence of TGF-β2 (Homo sapiens) (P61812 303-414): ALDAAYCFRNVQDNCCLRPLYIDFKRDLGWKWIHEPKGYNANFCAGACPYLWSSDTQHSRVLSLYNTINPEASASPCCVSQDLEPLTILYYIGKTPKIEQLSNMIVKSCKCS
Sequence of TGF-β1 (Homo sapiens) (P01137 279-390): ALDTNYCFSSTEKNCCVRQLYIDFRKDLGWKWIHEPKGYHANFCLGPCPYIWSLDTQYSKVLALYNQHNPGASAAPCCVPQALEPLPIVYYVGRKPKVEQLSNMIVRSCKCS

By Kd is commonly meant a measure of binding affinity in units of concentration. In the case of “alpha-2-macroglobulin (transformed, α2M*) (from UniProt P01023)”, the Kd with TGF-β1 (Homo sapiens) [1] was 80 nM; in the assay with TGF-β2 (Homo sapiens) [2], 13 nM; with TNF-α (Homo sapiens) [3], greater than 750 nM.

With “glutathione-S-transferase-RAP (receptor-associated protein) (from UniProt P30533 35-357) (natural protein)”, in assay [4], the percent of the cell surface binding of the frozen α2M preparations inhibited by RAP fell in the range of 20 to 50% and the percent of the cell surface binding of α2M inhibited by RAP (α2M in PBS/Az at -20°C; α2M in phosphate buffer with 100 mM NaCl at -20°C after rapid freezing) was 20%.

Consider “alpha-2-macroglobulin (native) (from UniProt P01023)”, for which the Kd in the assay with TGF-β2 (Homo sapiens) [5] was 11 nM; with TGF-β1 (Homo sapiens) [6] it was 330 nM; with TNF-α (Homo sapiens) [7] it was greater than 1270 nM.
